Molecular target: Cov-S-RBD-His (SARS-CoV-2, UniProt P0DTC2 319-537)

B1: S4B3-mIgG2a (antibody, V domains shown)
VH: QVQLQQSGAELVKPGASVKMSCKASGYIFNSYSIHWVKKTPGQGLEWIGAIYPGNGDTSNSQRFKGKATLTADKSSSTVYMQLSRLTSEDSAVYYCARDGYDDSYGLDYWGQGTSVTVSS
VL: DIVMTQSQKFMSTSVGDRVSVTCKASQNVGTNVAWYQQKPGQSPKALIYSASYRYSGVPDRFTGSGSGTDFTLTISNVQSEDLAEYFCQQYNSYPLTFGGGTKLEIKR
  Kd: 22.8 nM

Source: patent CN116836268A (BEIJING WISDOMAB BIOTECHNOLOGY CO LTD, dated 2023)
